B1: WS-LI1 binder having the sequence of SEQ ID NO: 47 (designed binder)
chain: MGVSDVPRDLEVVAATPTSLLISWDAPAVTVRYYRITYGEFSQFVHSDGEYYQEYQEFTVPGSKSTATISGLKPGVDYTITVYAVTGQYDQDDEPSSKPISINYRTEIDKPSQ
notes: Modified ^10Fn3 domain (CD and FG loops)
B2: non-binding control ^10Fn3 molecule (SEQ ID NO: 6 with an additional MG at the N-terminus and RGD changed to RGE) (designed binder)
chain: MGVSDVPRDLEVVAATPTSLLISWDAPAVTVRYYRITYGETGGNSPVQEFTVPGSKSTATISGLKPGVDYTITVYAVTGRGESPASSKPISINYRT
B3: Adnectin-7 (designed binder)
chain: MGVSDVPRDLEVVTATPTSLLISWDGPKYYVKYYRITYGETGGNSPVQEFTVPRTDHTATISGLKPGVDYTITVYAVKGQYGPYYGSRPISINYRTEIDKPSQHHHHHH
B4: scaffold region peptide of SEQ ID NO: 53 (peptide)
peptide: MGEVVAATPTSLLIS
notes: Synthetic peptide; also called wildtype scaffold region segment N-terminal to the BC loop
B5: Adnectin-3 (designed binder)
chain: MASTSGVSDVPRDLEVVAATPTSLLISWDAPAVPVSKYVIYYWPGALISSMQAFKVPGSKSTATISGLKPGVLYSIVVDALTGDGQGSYVWDPITITYRTEGSGSHHHHHH
B6: scaffold region peptide of SEQ ID NO: 54 (peptide)
peptide: PHFPTRYYRITYGETGGNS
notes: Synthetic peptide from an engineered ^10Fn3 domain; also called modified scaffold region segment C-terminal to the BC loop
B7: Adnectin-6 (designed binder)
chain: MGVSDVPRDLEVVAATPTSLLISWSRPKGSIKYYRITYGETGGNSPVQEFTVPNSQYTATISGLKPGVDYTITVYAVYGYPYQEPHYYPISINYRTEIDKPSQHHHHHH
B8: WS-LI1 binder having the sequence of SEQ ID NO: 3 (designed binder)
chain: MGVSDVPRDLEVVAATPTSLLISWDAPAVTVRYYRITYGEQHSKYPHQEFTVPGSKSTATISGLKPGVDYTITVYAVTIQPQDPEQDYQYHYYETSSKPISINYRTEIDKPSQ
notes: as for B1
B9: BC loop peptide (SEQ ID NO: 58) (peptide)
peptide: PTSLLISWDAPAVTVRYYRITYG
notes: Synthetic peptide; also called BC loop region cluster
B10: Adnectin-4 (designed binder)
chain: MASTSGVSDVPRDLEVVAATPTSLLISWDAPAVTVHSYYITYQELQHHSVPQGFQVPGSKSTATISGLKPGVAYQIAVYAFTGPGLPPSDAPPIVIYYRTEGSGSHHHHHH
B11: WS-LI1 binder having the sequence of SEQ ID NO: 45 (designed binder)
chain: MGVSDVPRDLEVVAATPTSLLISWDAPAVTVRYYRITYGEYHAFFASNGKYYFYIQEFTVPGSKSTATISGLKPGVDYTITVYAVTDDTVHHGDSNYHSSKPISINYRTEIDKPSQ
notes: as for B1
B12: WS-LI1 binder having the sequence of SEQ ID NO: 4 (designed binder)
chain: MGVSDVPRDLEVVAATPTSLLISWDAPAVTVRYYRITYGEHVADHFDHNQEFTVPGSKSTATISGLKPGVDYTITVYAVTYQFQDPEEHYYYHFYDSSSKPISINYRTEIDKPSQ
notes: as for B1
B13: Adnectin-5 (designed binder)
chain: MGVSDVPRDLEVVAATPTSLLISWKYPYETISYYRITYGETGGNSPVQEFTVPYYRSTATISGLKPGVDYTITVYAVEASAPYSDGGSPISINYRTEIDKPSQHHHHHH
B14: Adnectin-1 (designed binder)
chain: MASTSGSTHYYKGTADLEVVAATPTSLLISWPPPYYVEGVTVFRITYGETGGNSPVQEFTVPYWTETATISGLKPGVDYTITVYAEMYPGSPWAGQVMDIQPISINYRTEGSGSHHHHHH
notes: Isolated from an NP1 library; purified by Ni-agarose
B15: Adnectin-2 (designed binder)
chain: MASTSGVSDVPRDLEVVAATPTSLLISWDAPAVTVNNYRITYQPLLQGSSIQHFDVPGSKSTATISGLKPGVGYQITVYASTYTHSKAYYSLPISIYYRTEGSGSHHHHHH
B16: Adnectin-8 (designed binder)
chain: MGVSDVPRDLEVVAATPTSLLISWSQPGRYVKYYRITYGETGGNSPVQEFTVPNDTYTATISGLKPGVDYTITVYAVYGKYGPYYGYDPISINYRTEIDKPSQHHHHHH
B17: WS-LI1 binder having the sequence of SEQ ID NO: 5 (designed binder)
chain: MGVSDVPRDLEVVAATPTSLLISWDAPAVTVRYYRITYGEYHEHYHSPGFSQKYHYEQEFTVPGSKSTATISGLKPGVDYTITVYAVTGHKHYHYYYYYHHHSSKPISINYRTEIDKPSQ
notes: as for B1
B18: WS-LI1 binder having the sequence of SEQ ID NO: 46 (designed binder)
chain: MGVSDVPRDLEVVAATPTSLLISWDAPAVTVRYYRITYGEYSSFFQHQGQYYHYIQEFTVPGSKSTATISGLKPGVDYTITVYAVTQHEHSQDSSKPISINYRTEIDKPSQ
notes: as for B1

Assays:
[1] = molecular target: T1, biotinylated murine IL-17 (murine, UniProt Q62386 26-158, limits assumed, biotinylated (site not stated)); assay: competitive Alphascreen; 1 µM binder, biotinylated murine IL-17 against murine IL-17RA-Fc
T1 construct: Used at 2.5 nM in the Alphascreen assay; also called interleukin 17
T1 sequence (looked up): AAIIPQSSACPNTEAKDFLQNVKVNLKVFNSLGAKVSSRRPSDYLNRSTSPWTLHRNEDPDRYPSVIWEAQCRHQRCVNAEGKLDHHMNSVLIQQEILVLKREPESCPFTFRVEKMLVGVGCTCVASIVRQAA

[2] = molecular target: T2, Recombinant human integrin αVβ3 (R&D Systems) (human, UniProt P06756 31-992; P05106 27-718); assay: SPR (Biacore), integrin amine-coupled to a CM7 chip, binding RU at the end of the injection
T2 construct: Amine-coupled on a CM7 chip; also called integrin AlphaV-Beta3

[3] = molecular target: T3, human PXR-GST (Invitrogen) (human, UniProt O75469 111-434, limits assumed); assay: SPR, Biacore T100; human PXR-GST captured on anti-GST antibody chip;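 further: binding rate constants and Kd derived from kinetic cycles using the Biacore T100 analysis software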
T3 construct: Captured on an anti-GST antibody chip; the whole natural protein is named; also called GST-PXR; GST-tagged PXR; not shown: GST tag
T3 sequence (looked up): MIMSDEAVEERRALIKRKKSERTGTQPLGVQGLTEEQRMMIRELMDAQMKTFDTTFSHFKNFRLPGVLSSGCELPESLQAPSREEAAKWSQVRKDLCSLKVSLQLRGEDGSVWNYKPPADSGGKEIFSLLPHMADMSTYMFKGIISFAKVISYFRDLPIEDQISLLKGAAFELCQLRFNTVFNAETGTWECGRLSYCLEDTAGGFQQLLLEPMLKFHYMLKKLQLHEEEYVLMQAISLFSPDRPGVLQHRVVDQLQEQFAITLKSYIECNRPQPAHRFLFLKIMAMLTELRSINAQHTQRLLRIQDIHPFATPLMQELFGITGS

[4] = molecular target: HLA allele molecule DRB*0101 (human); assay: HLA class II competition binding assay: inhibition of the europium-labeled control peptide, time-resolved fluorescence
[5] = molecular target: HLA allele molecule DRB*1501 (human); assay: as above
[6] = molecular target: T4, murine DLL4 (murine, UniProt Q9JI71 28-525, limits assumed); assay: competitive Biacore; 2 µM binder equilibrated with 20 nM murine DLL4, flowed over immobilised Notch1-Fc
T4 construct: Soluble protein used at 20 nM; construct and source are not described; also called delta-like protein 4

Binder | Kd [3] [nM] | koff [3] [s⁻¹] | kon [3] [M⁻¹ s⁻¹] | also measured
B1 |  |  |  | % inhibition of the Alphascreen signal [1]: 81%
B2 |  |  |  | binding result [2]: no binding (tested: 5 µM)
B3 | 0.31 | 8.82e-05 | 288000 | 
B4 |  |  |  | IC50 [4]: 6000 nM; IC50 [5]: < 100 nM
B5 | 2.5 | 0.000378 | 162000 | 
B6 |  |  |  | IC50 [5]: 50000 nM
B7 | 1.9 | 0.00126 | 680000 | 
B8 |  |  |  | % competition of the interaction between Notch1 and murine DLL4 [6]: 100%
B9 |  |  |  | IC50 [5]: < 1000 nM
B10 | 7.8 | 0.000168 | 21500 | 
B11 |  |  |  | % inhibition of the Alphascreen signal [1]: 83%
B12 |  |  |  | % competition of the interaction between Notch1 and murine DLL4 [6]: 100%
B13 | 5.4 | 0.0027 | 509000 | 
B14 | 11.4 | 0.00119 | 104000 | 
B15 | 97.8 | 0.00458 | ~46800 | 
B16 | 4.4 | 0.000182 | 41700 | 
B17 |  |  |  | % competition of the interaction between Notch1 and murine DLL4 [6]: 75%
B18 |  |  |  | % inhibition of the Alphascreen signal [1]: 94%

Source: patent publication US20130245238A1 (Bristol-Myers Squibb, published 2013)
